Reference: PMC3587840 (Nature, 2010)
Positions count from the first letter of the chain named.

Key:
[1] = biological target: T1, SEMA4D_(ecto)(F244N/F246S) (human, UniProt Q92854 22-677, F244N | F246S); assay: SPR
T1 sequence: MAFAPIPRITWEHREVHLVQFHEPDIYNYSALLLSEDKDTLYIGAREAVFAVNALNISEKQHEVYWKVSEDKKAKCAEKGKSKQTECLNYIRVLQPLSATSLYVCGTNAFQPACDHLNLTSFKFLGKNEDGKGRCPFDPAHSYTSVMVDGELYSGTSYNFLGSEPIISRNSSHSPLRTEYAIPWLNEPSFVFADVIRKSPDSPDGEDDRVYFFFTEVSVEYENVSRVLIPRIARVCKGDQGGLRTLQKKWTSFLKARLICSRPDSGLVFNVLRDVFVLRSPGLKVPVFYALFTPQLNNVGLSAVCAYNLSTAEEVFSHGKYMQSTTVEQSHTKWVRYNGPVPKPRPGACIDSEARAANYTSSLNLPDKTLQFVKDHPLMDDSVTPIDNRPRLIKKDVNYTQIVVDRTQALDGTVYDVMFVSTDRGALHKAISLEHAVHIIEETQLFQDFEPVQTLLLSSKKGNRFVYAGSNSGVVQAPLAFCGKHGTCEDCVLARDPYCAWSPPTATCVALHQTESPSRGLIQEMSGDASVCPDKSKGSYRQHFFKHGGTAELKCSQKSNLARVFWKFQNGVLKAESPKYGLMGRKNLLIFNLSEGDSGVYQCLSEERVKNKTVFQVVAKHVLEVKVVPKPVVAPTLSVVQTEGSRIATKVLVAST

[2] = biological target: T2, human SEMA4D_(ecto), C-terminal His-tag (human, UniProt Q92854 22-677); assay: SPR
T2 sequence: T1 sequence with N223F, S225F

B1: human PLXNB1_(1–2), biotinylated at an engineered C-terminal tag (domain or fragment)
chain: LQPLPPTAFTPNGTYLQHLARDPTSGTLYLGATNFLFQLSPGLQLEATVSTGPVLDSRDCLPPVMPDECPQAQPTNNPNQLLLVSPGALVVCGSVHQGVCEQRRLGQLEQLLLRPERPGDTQYVAANDPAVSTVGLVAQGLAGEPLLFVGRGYTSRGVGGGIPPITTRALWPPDPQAAFSYEETAKLAVGRLSEYSHHFVSAFARGASAYFLFLRRDLQAQSRAFRAYVSRVCLRDQHYYSYVELPLACEGGRYGLIQAAAVATSREVAHGEVLFAAFSSAAPPTVGRPPSAAAGASGASALCAFPLDEVDRLANRTRDACYTREGRAEDGTEVAYIEYDVNSDCAQLPVDTLDAYPCGSDHTPSPMASRVPLEATPILEWPGIQLTAVAVTMEDGHTIAFLGDSQGQLHRVYLGPGSDGHPYSTQSIQQGSAVSRDLTFDGTFEHLYVMTQSTLLKVPVASCAQHLDCASCLAHRDPYCGWCVLLGRCSRRSECSRGQGPEQWLWSFQPELGCLQ
modifications: biotin on the engineered C-terminal tag (enzymatic)
- Kd [1]: 5.5 µM
- binding result [2]: binds
